According to the RNAGym collection of RNA variant scans (doi:10.7554/elife.90254):

B1: LINE1-full (parent)
chain: UACGUAGGUGGUUUUCCCCUGAUAGUGCUAAGGGGGCCUGGAAGUUUGGACUGGGCAGAGCUCAACACAGCGUGGCAAAGUGGCUGUGGCUAGACUGCCUCUCUGGAUUCCUCGUCACUCAGCAGGGCAUCUCUGAGAGAAAUGCC

Variants of: B1
Experiment: self-cleavage, relative activity (ratio to wild type); higher = more cleavage; in vitro, sequencing; the parent is a self-cleaving ribozyme

Variant	self-cleavage
G25A A142C	2.3
U23C U119A	1.17
U23C U119C	1.61
U23C U108C	1.38
U23C U108A	1.33
U23C U112A	1.37
A22G U119G	1.51
G25A U46A	1.42
A22G U85A	0.12
A22G U102A	1.5
A22G U102C	1.04
U23C U104A	1.14
U23C U104C	1.78
A24G A124G	1.06
U23A A57G	0.94
G25C U102C	1.31
A24U A57G	0.56
A24G U85C	0
A24G A57C	0
A24C A79U	2.24
A22U G122A	1.19
U23A U46A	0.6
G25A A42G	1.38
U23A A141G	1.21

Variant	self-cleavage
A22U U108C	1.19
A22U U102A	1.41
A24G U52C	0.12
G25A U91C	0
A22G U132G	1.67
A22U G72A	1.27
U23C G35A	1.4
G25A U85A	0.08
U23A U39A	1.42
A24U G83A	1.07
A24G A79U	1.59
A24G A79G	0.95
A24G U26A	0.84
A24G A67U	0.24
A22G U81A	1.67
A24U A43G	1.33
A24G G55A	0.3
A24G G55U	0.26
U23C U52C	1.43
A22G U143C	0.97
A22G U143A	1.19
A24U A117C	1.6
A24U A142G	1.29
A24U A142C	1.54

Variant	self-cleavage
U23G C90G	0.03
U23C G122A	1.61
A24G A69G	0.92
U23A A30G	2.09
A22U U115C	1.77
A24U U26C	0.97
A24G G114C	1.7
U23C C61A	0.06
U23A U29C	1.02
U23A U29A	1.24
A24G C131U	1.59
U23C C56U	0.23
A24U U46A	0.91
U23C G83A	1.02
A24C A64G	0.64
A24C A64U	0.58
U23C G34A	1.26
U23C G34U	1.44
A24G A64G	0.53
A24G A64C	0.38
U23C G72U	0
U23A C98U	0.26
U23C A78U	2.06
A24G A65G	0.3

Variant	self-cleavage
U23A A67U	0.19
A22U G114A	1.44
A24G A92G	0.2
A24G A92C	0
A24U A129U	1.26
A24U U62A	0.03
U23A U73A	1.16
G25U A43C	1.32
U23A U52A	1.37
A22U A43G	1.01
G25A A59G	0.09
U23A U85C	0.28
A22U A107U	1.96
G25A A92U	0.25
A24G A94G	0.31
A24G A94U	0.49
A22G U47C	1.18
A22U U130A	1.38
U23C A64G	0.35
A24U U87A	0.11
U23C U46C	1.52
U23C U46A	0.92
A24G G32A	1.13
U23C U100C	1.79

Variant	self-cleavage
U23C U100A	1.3
G25U A65G	0.01
U23G U143C	0
G25U G49U	1.21
G25A A67G	0.5
G25A U47C	0.54
U23C C111U	1.34
G25A G44A	1.16
A22U U91A	0.3
A22U U91C	0.2
A22G U46C	1.04
A22U U47C	1.04
A22U U47A	1.44
U23C A141G	1.4
A24G G106A	0.78
A22U A129G	2.09
U23C G55U	0.22
A22U C123A	1.17
A24U U39A	0.84
A24G G54U	0.68
A24G G54A	0.67
A24G G54C	0.72
G25A G27A	1.03
A24U A92U	0.7

Variant	self-cleavage
U23A U45A	1.28
A24U C110A	1.1
A22U U26A	0.5
U23A A31C	1.31
U23A U108A	1.44
A24C A67G	0.42
A22G U91C	0.65
A22G U91A	0.71
U23C U130C	1.76
U23C U91C	1.18
U23C U91G	0.15
A24G G74A	0.93
A22U A121G	1
A22U U119G	2.23
A24U A94G	0.47
U23C U143C	1.41
U23A G93A	0.08
G25A G54C	1.02
U23C A124G	1.52
U23C A42U	1.22
U23C A136G	1.27
U23C A31U	0.77
A24U G33A	1.07
A22U G40U	0.87

Variant	self-cleavage
A24U C145U	1.4
A24G U143A	0.72
U23C A142U	2.35
A24G C146U	1.61
A24U A140U	2
U23C A57U	0.18
U23C A57G	1.2
U23C U26C	1.29
A22G U73A	1.29
A24U G40A	0.71
A22U U23C	0.87
U23C U87C	0.25
A24G C63A	0
U23C A94U	0.48
A24G C71U	1.03
A22G U115A	1.52
A22G U115C	1.18
A22U U143G	1.27
A24G U87A	0.03
A24U G126A	1.34
A24U G126U	1.22
A22G U96A	0.13
A22U A67G	0.41
